Read-outs that look alike come from different tables or passages of the source.
Columns and labels:
Experiment in all cases: cell-based or functional assay
[1] = biological target: FGFR3c expressed on BaF3 cells (BaF3/FGFR3c)
[2] = biological target: FGFR3c expressed on BaF3 cells (BaF3/FGFR3c); remark: listed apart in the source
[3] = biological target: FGFR3c expressed on BaF3 cells (BaF3/FGFR3c); remark: listed apart in the source

BaF3/FGFR3 cell proliferation, O.D. (WST-1), Sprifermin 100 ng/mL (CTR+) [1]: 0.5 O.D.
BaF3/FGFR3 cell proliferation, Optical Density (WST-1), Sprifermin 100 ng/mL (CTR+) [1]: 0.5 O.D.
BaF3/FGFR3 cell proliferation, O.D. (WST-1), Sprifermin 100 ng/mL (CTR+) [2]: 0.194 O.D.
BaF3/FGFR3 cell proliferation, O.D. (WST-1), Sprifermin 100 ng/mL (CTR+) [3]: 0.15 O.D.
Substance: recombinant truncated FGF-18 (trFGF-18) (from UniProt O76093 28-196) (ligand)

Reference: patent US20180236032A1
